Reference: patent publication US20180326022

How the values were obtained:
[1] = target: detyrosinated microtubules (human cardiomyocytes)
[2] = target: detyrosinated microtubules (rat cardiomyocytes)

B1: human tubulin tyrosine ligase (TTL) (protein)
chain: MYTFVVRDENSSVYAEVSRLLLATGHWKRLRRDNPRFNLMLGERNRLPFGRLGHEPGLVQLVNYYRGADKLCRKASLVKLIKTSPELAESCTWFPESYVIYPTNLKTPVAPAQNGIQPPISNSRTDEREFFLASYNRKKEDGEGNVWIAKSSAGAKGEGILISSEASELLDFIDNQGQVHVIQKYLEHPLLLEPGHRKFDIRSWVLVDHQYNIYLYREGVLRTASEPYHVDNFQDKTCHLTNHCIQKEYSKNYGKYEEGNEMFFKEFNQYLTSALNITLESSILLQIKHIIRNCLLSVEPAISTKHLPYQSFQLFGFDFMVDEELKVWLIEVNGAPACAQKLYAELCQGIVDIAISSVFPPPDVEQPQTQPAAFIKL
- density of dTyr-MTs and dTyr-MT/total MT ratio (immunofluorescence) after AdV-TTL for 48 hrs [1]: decreased the density of dTyr-MTs and the proportion of total MTs that were detyrosinated
- amount of polymerized, detyrosinated MTs (immunofluorescence and immunoblot) after AdV-TTL [2]: 3-4 fold reduction in the amount of polymerized, detyrosinated MTs
- detyr Tubulin, western blotting relative to null, TTL (0.01) (relative to null) [2]: 0.74
- detyr Tubulin, western blotting relative to null, TTL (0.1) (relative to null) [2]: 0.28
- tyr Tubulin, western blotting relative to null, TTL (0.01) (relative to null) [2]: 2.63
- tyr Tubulin, western blotting relative to null, TTL (0.1) (relative to null) [2]: 3.32
